# Measured values published in patent US20060204492A1 (published 2006).
# Key:
# [1] = target: integrin αvβ3 on cells (M21 human melanoma cells; human umbilical vein endothelial cells) (human) (UniProt P06756); assay: cell-based or functional assay
# [2] = target: T1, integrin αvβ3, purified from human placenta (human, UniProt P06756 31-1048; P05106 27-788); assay: SPR (BIAcore), purified Fab over immobilized αvβ3
# T1 construct: mature; Native heterodimer, immobilized on ELISA plates or on the BIAcore chip; biotinylated in capture lift and capture ELISA screens; also called αvβ3 receptor; vitronectin receptor
# T1 sequence (P06756 31-1048, form in doubt, chain 1 of 2): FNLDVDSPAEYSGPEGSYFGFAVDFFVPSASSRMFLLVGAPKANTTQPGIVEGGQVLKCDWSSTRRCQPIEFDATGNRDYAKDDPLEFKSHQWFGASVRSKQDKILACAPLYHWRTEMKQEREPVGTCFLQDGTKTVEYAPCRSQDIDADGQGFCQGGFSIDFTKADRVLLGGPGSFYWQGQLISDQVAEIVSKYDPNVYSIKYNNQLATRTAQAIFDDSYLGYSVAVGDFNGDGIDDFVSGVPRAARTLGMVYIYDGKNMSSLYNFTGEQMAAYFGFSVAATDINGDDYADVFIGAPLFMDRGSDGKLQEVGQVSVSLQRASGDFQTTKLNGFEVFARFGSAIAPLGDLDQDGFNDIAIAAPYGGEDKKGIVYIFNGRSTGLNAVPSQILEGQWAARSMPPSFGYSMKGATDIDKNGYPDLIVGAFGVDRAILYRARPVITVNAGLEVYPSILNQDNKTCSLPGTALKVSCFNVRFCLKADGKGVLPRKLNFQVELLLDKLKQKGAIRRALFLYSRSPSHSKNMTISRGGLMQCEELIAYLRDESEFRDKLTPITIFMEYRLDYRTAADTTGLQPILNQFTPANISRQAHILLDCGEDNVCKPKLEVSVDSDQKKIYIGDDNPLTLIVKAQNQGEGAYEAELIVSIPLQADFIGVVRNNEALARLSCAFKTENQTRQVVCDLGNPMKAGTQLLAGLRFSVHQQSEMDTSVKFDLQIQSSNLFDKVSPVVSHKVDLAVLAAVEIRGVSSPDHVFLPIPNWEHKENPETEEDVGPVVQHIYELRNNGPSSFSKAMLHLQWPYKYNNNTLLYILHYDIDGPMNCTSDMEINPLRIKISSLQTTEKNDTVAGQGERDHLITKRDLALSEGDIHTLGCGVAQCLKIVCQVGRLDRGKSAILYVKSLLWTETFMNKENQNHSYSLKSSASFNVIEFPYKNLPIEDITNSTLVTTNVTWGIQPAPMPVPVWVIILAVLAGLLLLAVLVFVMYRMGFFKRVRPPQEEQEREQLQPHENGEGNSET
# T1 sequence (P05106 27-788, form in doubt, chain 2 of 2): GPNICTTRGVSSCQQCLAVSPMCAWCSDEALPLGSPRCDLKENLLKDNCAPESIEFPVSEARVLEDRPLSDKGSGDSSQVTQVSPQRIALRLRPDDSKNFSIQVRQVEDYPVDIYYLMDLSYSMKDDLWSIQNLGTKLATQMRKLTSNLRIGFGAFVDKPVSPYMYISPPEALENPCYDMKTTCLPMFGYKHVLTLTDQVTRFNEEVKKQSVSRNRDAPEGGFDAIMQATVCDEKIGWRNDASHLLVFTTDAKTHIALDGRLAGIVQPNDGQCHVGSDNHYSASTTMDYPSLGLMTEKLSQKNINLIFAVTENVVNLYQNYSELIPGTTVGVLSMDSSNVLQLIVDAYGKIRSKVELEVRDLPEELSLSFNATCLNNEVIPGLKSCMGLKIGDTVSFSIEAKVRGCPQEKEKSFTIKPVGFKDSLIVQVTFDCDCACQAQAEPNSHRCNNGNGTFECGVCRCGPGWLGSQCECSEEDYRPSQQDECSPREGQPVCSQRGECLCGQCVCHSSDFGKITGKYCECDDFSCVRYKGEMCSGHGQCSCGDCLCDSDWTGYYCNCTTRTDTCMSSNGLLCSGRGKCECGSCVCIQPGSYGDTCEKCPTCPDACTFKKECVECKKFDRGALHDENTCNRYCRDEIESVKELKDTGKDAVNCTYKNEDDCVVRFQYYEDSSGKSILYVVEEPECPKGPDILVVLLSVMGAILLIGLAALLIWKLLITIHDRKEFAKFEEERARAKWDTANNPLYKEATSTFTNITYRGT
# Experimental: The affinities of select variants were further characterized by utilizing surface plasmon resonance (BIAcore) to measure the association and dissociation rates of purified Fab with immobilized αᵥβ₃. […] To obtain association rate constants (kₒₙ), the binding rate at five different Fab concentrations, ranging from 5-40 μg/ml in 50 mM Tris-HCl, pH 7.4, 100 mM NaCl, 2 mM CaCl₂, and 1 mM MgCl₂, was determined at a flow rate of 10 μl/min. Dissociation rate constants (koff) were the average of five measurements obtained by analyzing the dissociation phase at an increased flow rate (40 μl/min). Sensorgrams were analyzed with the BIAevaluation 2.1 program (Pharmacia). Residual Fab was removed after each measurement with 10 mM HCl, 2 mM CaCl₂ and 1 mM MgCl₂.
# [3] = target: T1, integrin αvβ3, purified from human …; assay: ELISA titration of bacterial lysate Fab on immobilized αvβ3, inflection points
# Experimental: (§1) Just prior to use, the plates were washed two times and were then incubated 1 h at 25° C. with various dilutions of Fab. […] All dilutions and washes were in 50 mM Tris-HCl, pH 7.4, 100 mM NaCl, 2 mM CaCl₂, and 1 mM MgCl₂.
# [4] = target: T1, integrin αvβ3, purified from human …; assay: SPR (BIAcore), purified Fab over immobilized αvβ3; remark: listed apart in the source
# [5] = target: T1, integrin αvβ3, purified from human …; assay: ELISA titration of Fab on immobilized αvβ3
# Experimental: as §1
# integrin αvβ5 = target: T2, integrin αvβ5 (human, UniProt P06756 31-1048; P18084 24-799); assay: ELISA on coated integrin, goat anti-human IgG-alkaline phosphatase
# T2 construct: mature
# T2 sequence (P06756 31-1048, chain 1 of 2): as the sequence (P06756 31-1048, form in doubt, chain 1 of 2) above
# T2 sequence (P18084 24-799, chain 2 of 2): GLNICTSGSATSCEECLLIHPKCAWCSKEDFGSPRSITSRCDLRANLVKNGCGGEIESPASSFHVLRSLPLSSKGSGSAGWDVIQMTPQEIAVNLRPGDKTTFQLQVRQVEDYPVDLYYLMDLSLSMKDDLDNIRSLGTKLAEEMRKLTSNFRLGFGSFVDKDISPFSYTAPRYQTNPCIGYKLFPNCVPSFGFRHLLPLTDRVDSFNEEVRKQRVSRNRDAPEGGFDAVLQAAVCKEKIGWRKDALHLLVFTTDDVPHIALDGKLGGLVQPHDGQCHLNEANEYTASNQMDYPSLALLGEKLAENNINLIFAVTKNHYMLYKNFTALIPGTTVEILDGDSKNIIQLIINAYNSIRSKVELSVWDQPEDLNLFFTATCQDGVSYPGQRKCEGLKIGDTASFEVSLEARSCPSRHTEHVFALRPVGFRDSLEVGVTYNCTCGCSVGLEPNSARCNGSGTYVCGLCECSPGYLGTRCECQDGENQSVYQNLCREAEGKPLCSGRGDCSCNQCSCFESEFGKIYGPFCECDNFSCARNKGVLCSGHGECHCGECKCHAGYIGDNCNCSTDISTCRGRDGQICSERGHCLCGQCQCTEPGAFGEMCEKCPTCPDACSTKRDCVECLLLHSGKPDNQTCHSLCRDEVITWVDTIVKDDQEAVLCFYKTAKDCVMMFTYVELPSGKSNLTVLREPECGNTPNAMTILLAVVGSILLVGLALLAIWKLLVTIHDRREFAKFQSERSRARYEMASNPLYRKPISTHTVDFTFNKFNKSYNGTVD
# Experimental: Antibody binding activity was assessed by ELISA using a goat anti-human IgG-alkaline phosphatase conjugate.
# integrin αvβ3 on cells (M21 human melanoma cells; human umbilical vein endothelial cells) (human), sequence (P06756 31-1048, chain 1 of 2): as the sequence (P06756 31-1048, form in doubt, chain 1 of 2) above
# integrin αvβ3 on cells (M21 human melanoma cells; human umbilical vein endothelial cells) (human), sequence (P05106 27-788, chain 2 of 2, further chain): as the sequence (P05106 27-788, form in doubt, chain 2 of 2) above
inhibition of M21 cell adhesion to fibrinogen: inhibitory concentration for 50% maximal adhesion [1] [ng/mL],"inhibition of vitronectin-induced migration of human umbilical vein endothelial cells (transwell), 5 µg/ml antibody [1] [%]",Kd [2] [nM],koff [2] [s⁻¹],kon [2] [M⁻¹ s⁻¹],fold improved affinity over LM609 grafted antibody [3] [fold],fold higher affinity than LM609 grafted antibody [4] [fold],fold enhanced binding over parent LM609 grafted antibody [5] [fold],fold increase in affinity over parent LM609 grafted antibody [4] [fold],binding result (integrin αvβ5),Molecule
50,60,–,–,–,–,–,–,–,–,monoclonal antibody LM609
–,–,6,0.00144,242000,> 3,4.6,> 3,–,–,"LM609 grafted antibody variant S102 (Fab, V domains shown, Fab; also called clone S102) VH: QVQLVESGGGVVQPGRSLRLSCAASGFTFSSYDMSWVRQAPGKGLEWVAKVSSGGGSTYYLDTVQGRFTISRDNSKNTLYLQMNSLRAEDTAVYYCARHNYGSFASWGQGTTVTVSS VL: EIVLTQSPATLSLSPGERATLSCQASQSISNHLHWYQQRPGQAPRLLIRYRSQSISGIPARFSGSGSGTDFTLTISSLEPEDFAVYYCQQSGSWPHTFGGGTKVEIK"
–,–,2.2,0.00048,218000,> 3,–,> 3,12.5,–,"LM609 grafted antibody variant Y101 (Fab, V domains shown, Fab) VH: QVQLVESGGGVVQPGRSLRLSCAASGFTFSSYDMSWVRQAPGKGLEWVAKVSSGGGSTYYLDTVQGRFTISRDNSKNTLYLQMNSLRAEDTAVYYCARHNYGSFYYWGQGTTVTVSS VL: EIVLTQSPATLSLSPGERATLSCQASQSISNHLHWYQQRPGQAPRLLIRYRSQSISGIPARFSGSGSGTDFTLTISSLEPEDFAVYYCQQSGSWPHTFGGGTKVEIK"
–,–,14.3,0.00251,175000,> 3,–,> 3,–,–,"LM609 grafted antibody variant Y100 (Fab, V domains shown, Fab) VH: QVQLVESGGGVVQPGRSLRLSCAASGFTFSSYDMSWVRQAPGKGLEWVAKVSSGGGSTYYLDTVQGRFTISRDNSKNTLYLQMNSLRAEDTAVYYCARHNYGSYAYWGQGTTVTVSS VL: EIVLTQSPATLSLSPGERATLSCQASQSISNHLHWYQQRPGQAPRLLIRYRSQSISGIPARFSGSGSGTDFTLTISSLEPEDFAVYYCQQSGSWPHTFGGGTKVEIK"
–,–,–,–,–,–,–,–,–,no binding (tested: over 1.0 mg/ml),"Vitaxin (antibody, human IgG1, V domains shown, Human IgG1 constant region and human kappa constant region; also called huLM609M13 1135-4; grafted LM609) VH: QVQLVESGGGVVQPGRSLRLSCAASGFTFSSYDMSWVRQAPGKGLEWVAKVSSGGGSTYYLDTVQGRFTISRDNSKNTLYLQMNSLRAEDTAVYYCARHNYGSFAYWGQGTTVTVSS VL: EIVLTQSPATLSLSPGERATLSCQASQSISNHLHWYQQRPGQAPRLLIKYRSQSISGIPARFSGSGSGTDFTLTISSLEPEDFAVYYCQQSGSWPHTFGGGTKVEIK"
